Data taken from patent US20240360233A1 (University of Texas, published 2024).

T1: his-tagged TSLPR (TSLPR-HIS) (UniProt Q9HC73 23-231, limits assumed)
T1 construct: Soluble protein used in the ForteBio assay; not shown: His tag
T1 sequence (looked up): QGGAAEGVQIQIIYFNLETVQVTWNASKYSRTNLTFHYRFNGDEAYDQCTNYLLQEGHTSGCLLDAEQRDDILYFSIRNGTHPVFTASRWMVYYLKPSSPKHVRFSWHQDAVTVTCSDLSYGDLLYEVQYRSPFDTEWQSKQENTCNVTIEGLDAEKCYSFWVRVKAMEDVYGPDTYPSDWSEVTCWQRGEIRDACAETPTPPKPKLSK


What was measured:
[1] = target: T1, his-tagged TSLPR (TSLPR-HIS); test: BLI (ForteBio AHQ sensor), antibody captured, TSLPR-HIS in solution
Procedure: (§1) TSLPR antibody clones whose VH and VL sequences are disclosed in Tables 9 and 10 were bound to the AHQ sensor and his-tagged TSLPR (TSLPR-HIS) was provided in solution. […] The anti-TSLPR antibodies were serially diluted with an HBS-EP solution (GE Healthcare), and 100 μL of the solution was added to the flow path at a flow rate of […].

[2] = target: T1, his-tagged TSLPR (TSLPR-HIS); test: BLI (ForteBio AHQ sensor), antibody captured, TSLPR-HIS and TSLP in solution; competitor TSLP
Procedure: as §1

Kd [1]	koff [1]	kon [1]	TSLPR-TSLP Response [2]	Binder
2.33 nM	0.00127 s⁻¹	545000 M⁻¹ s⁻¹		TSLPR antibody clone 1B9 (antibody, V domains shown, Captured on an anti-human IgG sensor) VH: QVQLQESGPGLVKPSGTLSLTCAVSGGSIRSSNWWSWVRQPPGKGLEWIGEIYHGGTTNNNPSLKSRVTISVDQSKSQFSLKLSSVTAADTAVYYCARHRYSSGLDYWGQGTLVTVSS VL: DIQMTQTPSTLSASVGDRVTITCRGSHSISNWLGWYRHKPRKAPNLLIYKASSLKSGVPSRFSGSGSGTEFTLTITSLQPDDFATYYCQQYNHYSTFGQGTKVDIKR
6.81 nM	0.00139 s⁻¹	204000 M⁻¹ s⁻¹		TSLPR antibody clone 3E5 (antibody, V domains shown, Captured on an anti-human IgG sensor) VH: EVQLLESGGGLVQPGGSLRLSCAASGFTFSSNAMSWVRQAPGKGLEWVSAIRGRGGSTYYADSVKGRFTISRDNSKNTLYLQLNSLRAEDTAVYYCAKDRIVVAGPFDHWGQGTLVTVSS VL: DIQLTQSPSFLSASVGDRVTITCRASQGISSYLAWYQQKPGKAPKLLIYAASTLQSGVPSRFSGSGSGTEFTLTISSLQPEDFATYYCQQLNRYPLTFGGGTKVDIKR
1.28 nM	0.00045 s⁻¹	351000 M⁻¹ s⁻¹	120%	TSLPR antibody clone 2F5 (antibody, V domains shown, Captured on an anti-human IgG sensor) VH: EVQLVESGGGLVQSGGSLRFSCAASGFTFSSHPMNWVRQVPGKGLEWVSSISGSGGSTYYADFVKGRFTISRDNSKNTLYLQMNSLRAEDTAVYYCAKGHNSGWKYWGQGTLVTVSS VL: DIQLTQSPSFLSASVGDRVTITCRASQGISSYLAWYQQKPGKAPKLLIYAASTLQSGVPSRFSGSGSGTEFTLTISSLQPEDFATYYCQQLNSYPPTFGQGTKVDIKR
1.16 nM	0.000134 s⁻¹	116000 M⁻¹ s⁻¹		TSLPR antibody clone 3D8 (antibody, V domains shown, Captured on an anti-human IgG sensor) VH: QVQLVESGGGVVQPGRSLRLSCAASGFTFSSYVMHWVRQAPGKGLEWVAVIWYAGNKKYYADSVKGRFTISRDNSNNTLYLQMNSLRAEDTAVYYCAREYSSSWHYYGMDVWGQGTTVTVSS VL: DIQLTQSPSFLSASVGDRVTITCRASQGISSYLAWYQQKPGKAPKLLIYAASTLQSGVPSRFSGSGSGTEFTLTISSLQPEDFATYYCQQLNSYPLTFGGGTKVDIKR
7.63 nM	0.0014 s⁻¹	184000 M⁻¹ s⁻¹	82.6%	TSLPR antibody clone 2E6 (antibody, V domains shown, Captured on an anti-human IgG sensor) VH: EVQLLESGGNLVQPGGSLRLSCAASGFTFGSYVMTWGRQAPGKGLEWVSTISASGGSTYYADSVKGRFTISRDNSKNTLYLQMNSLRAEDTAVYYCAKDKWGKGFDIWGQGTMVTVSS VL: DIQLTQSPSFLSASVGDRVTITCRASQGISSYLAWYQQKPGKAPKLLIYAASTLQSGVPSRFSGSGSGTEFTLTISSLQPEDFATYYCQQLNSYPPTFGGGTKVEIKR
< 0.001 nM	< 1e-07 s⁻¹	16200 M⁻¹ s⁻¹		TSLPR antibody clone 1D10 (antibody, V domains shown, Captured on an anti-human IgG sensor) VH: QVQLQESGPGLVKPSETLSLTCTVSGGSISRYYWSWIRQPPGKGLEWIGYIFYNKNTNYNPSLKSRVTISVDTSKNQFSLKLSSVTAADTAVYYCARYIAAIYTDLYYFDYWGQGTLVTVSS VL: not shown
4.33 nM	0.000332 s⁻¹	76800 M⁻¹ s⁻¹	204%	TSLPR antibody clone 2F1 (antibody, V domains shown, Captured on an anti-human IgG sensor) VH: QVQLQESGPGLVKPSETLSLTCTVSGGSISRYYWSWIRQPPGKGLEWIGYIFYNKNTNYNPSLKSRVTISVDTSKNQFSLKLSSVTAADTAVYYCARYIAAIYTDLYYFDYWGQGTLVTVSS VL: DIQLTQSPSFLSASVGDRVTITCRASQGISSYLAWYQQKPGKAPKLLIYAASTLQSGVPSRFSGSGSGTEFTLTISSLQPEDFATYHCQQLNSYPLTFGGMTKVEIKR
11.7 nM	0.0021 s⁻¹	179000 M⁻¹ s⁻¹		TSLPR antibody clone 1G3 (antibody, V domains shown, Captured on an anti-human IgG sensor) VH: QVQLVESGGGVVQPGRSLRLSCAASGFTFSSYGMHWVRQTPGKGLEWVAVMWYDGRNKYYADSVKGRFTISRDNSKNTLYLQMNSLRAEDTAVYYCARDRIMVRGVIIPHVFDIWGQGTMVTVSS VL: EIVMTQSPATLSVSPGERATLSCRASQSVSSNLGWYQQKPGQAPRLLIYGASTRATGIPARFSGSGSGTEFILTISSLQSEDFAVYYCQEYNNWWTFGQGTKVDIKR
3.07 nM	0.000326 s⁻¹	106000 M⁻¹ s⁻¹	-3.7%	TSLPR antibody clone 2A4 (antibody, V domains shown, Captured on an anti-human IgG sensor) VH: QVQLVQSGAEVKKPGASVKVSCKASGYTFTGYYMHWVRQAPGQGLEWMGRFNLHSGVTNYAQKFQGRVTMTRDTSISTVYMDLSRLRSDDTAVYYCARERQWLVQDYFDYWGQGTLVTVSS VL: DIQMTQSPSSLSASVGDRVTITCRASQSISNYLNWYQQKPGKAPNLLICAASSLQSGVPSRFSGSGSGTDFTLTISSLQPEDFATYYCQQSYSIPPTFGQGTKVDIKR
0.806 nM	0.000191 s⁻¹	237000 M⁻¹ s⁻¹		TSLPR antibody clone 2H8 (antibody, V domains shown, Captured on an anti-human IgG sensor) VH: EVQLLESGGGLEQPGGSLRLSCAASGFTFSSHAMNWVRQAPGKGLEWVSAISGSGGSTYYADSVKGRFTISRDNSKNTLCLQMNSLRAEDTAVYYCARGHNSGWPYWGQGTLVTVSS VL: not shown
4.86 nM	0.000334 s⁻¹	68800 M⁻¹ s⁻¹		TSLPR antibody clone 10C4 (antibody, V domains shown, Captured on an anti-human IgG sensor) VH: QVQLQESGPGLVKPSGTLSLTCAVSGGSINSNNWWSWVRQPPGKGLEWIGDIYHSGSTNYNPSLKSRVTISVDKSKSQFSLKLSSVTAADTAVYYCARRRWLQHFDFWGQGTLVTVSS VL: DIQMTQSPSTLSASVGDRVTITCRASQSITNWLAWYQQKPGKAPKLLIYKASSLESGVPSRFSGSGSGTEFTLAISSLQPDDFATYYCQQYNIYPLAFGGGTKVEIKR
8.9 nM	0.00119 s⁻¹	133000 M⁻¹ s⁻¹		TSLPR antibody clone 1A10 (antibody, V domains shown, Captured on an anti-human IgG sensor) VH: QVQLQESGPGLVKPSETLSLTCNVSGGSISTYYWNWLRQPPGKGLEWIGSIYYSGTTNYNPSLKSRVTISVDTSKHQFSLRLTSVTAADTAVYFCARDQGYYHGSGSYFFDYWGQGTLVTVSS VL: EIVMTQSPATLSVSPGERATLSCRASQSVSSHLAWYQQKPGQAPRLLIYGASTRATGIPARFSGSGSGTEFTLTISSLQSEDFAIFYCQQYNNWPLTFGGGTKVDIKR
3.9 nM	0.00137 s⁻¹	351000 M⁻¹ s⁻¹		TSLPR antibody clone 1F6 (antibody, V domains shown, Captured on an anti-human IgG sensor) VH: QVQLVQSGAEVRKPGSSVKVSCKASGGTVSSYAISWVRQAPGQGLEWMGGITPIFGTAKYAQKFQGRVTITADKSTSTAYMELSSLRSEDTAVYYCARGGIAAAGTFDYWGQGTLVTVSS VL: not shown
5.91 nM	0.0015 s⁻¹	254000 M⁻¹ s⁻¹	32.2%	TSLPR antibody clone 2H4 (antibody, V domains shown, Captured on an anti-human IgG sensor) VH: QVQLVQSGAEVKKPGSSVKVSCKASGGTFNSYAISWVRQAPGQGLEWMGGITPIFGTAKYAQKFQGRVTITADKSTSTTYMELSSLRSEDTAVYYCARPGIIVAGPFDYWGQGTLVTVSS VL: not shown
5.29 nM	0.000881 s⁻¹	167000 M⁻¹ s⁻¹	83.2%	TSLPR antibody clone 2D11 (antibody, V domains shown, Captured on an anti-human IgG sensor) VH: QVQLQESGPGLVKPSETLSLTCAVSGYSISSGYYWGWIRQPPGKGLEWIGRIYHSGTTSYNPSLKRRVTISVDTSKNQFSLKLSSVTATDTAVYYCARNWGGNWFDPWGQGTLVTVSS VL: DIQMTQSPSSLSASVGDRVTITCRASQGISNYLAWYQQKPGKVPKLLIYAASTLQSGVPSRFSGSGSGTDFTLTISSLQPEDVATYYCQKYNSARTFGQGTKVDIKR
1.01 nM	0.000294 s⁻¹	292000 M⁻¹ s⁻¹		TSLPR antibody clone 2E4 (antibody, V domains shown, Captured on an anti-human IgG sensor) VH: EVQLLESGGGLVQPGGSLRLSCAASGFTFSSYAMNWVRQAPGKGLEWVSGISGSGGSTYYADSVKGRFTFSRDNSKNTLYLQMISLRAEDTAVYYCAKDQRITMVRGVIGAFDIWGQGTMVTVSS VL: DIQMTQSPSTLSASVGDRVTITCRASQSISSWLAWYQQKPGKAPKLLIYKASSLESGVPSRFSGSGSGTEFTLTISSLQPDDFATYYCQQYVGLITFGQGTRLEIKR
			80%	TSLPR antibody clone 2H1 (antibody, V domains shown, Captured on an anti-human IgG sensor) VH: EVQLLESGGGLVQPGGSLSLSCAASGFTFSRYGMHWVRQAPGKGLEWVSAISASGGSTYYADSVKGRFTISRDNSKNTLYLQMNSLRAEDTAVYYCAKDKWGYAFDIWGQGTTVTVSS VL: DIQMTQSPSTLSASVGDRVTITCRASQSISNWLAWYQQKPGKAPKLLIYKASSLESGVPSRFSGSGSGTEFTLTISSLQPDDFATYYCLQYNHYSTFGQGTKVDIKR
8.07 nM	0.00324 s⁻¹	401000 M⁻¹ s⁻¹	21.2%	TSLPR antibody clone 2B2 (antibody, V domains shown, Captured on an anti-human IgG sensor) VH: QVQLVESGGGVVQPGRSLRLSCAASGFTFSNYGMHWVRQAPGKGLEWVSFIWYDGSHRYYADSVKGRFTISRDNSKNTLYLQMNSLRAEDTAVYYCAKGRGGLDWYFDLWGRGTLVTVSS VL: not shown
